Here are results for one substance from US20260078182A1.

The target of this test is CCR4 (human) (UniProt P51679). Put plainly: cell-based or functional assay.
UniProt P51679, sequence (P51679 whole entry): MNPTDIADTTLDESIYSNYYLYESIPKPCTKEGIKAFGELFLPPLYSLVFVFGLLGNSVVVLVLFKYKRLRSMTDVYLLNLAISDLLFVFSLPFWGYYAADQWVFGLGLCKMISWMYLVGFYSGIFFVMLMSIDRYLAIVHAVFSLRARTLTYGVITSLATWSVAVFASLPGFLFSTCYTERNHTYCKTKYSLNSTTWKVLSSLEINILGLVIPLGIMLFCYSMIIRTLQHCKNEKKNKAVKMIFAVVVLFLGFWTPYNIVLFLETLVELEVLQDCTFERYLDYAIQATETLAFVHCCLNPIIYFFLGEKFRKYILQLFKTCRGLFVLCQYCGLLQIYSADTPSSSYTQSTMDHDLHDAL

Turning to mogamulizumab (antibody), the EC50 (pM), cytotoxicity of the negative control antibody against MT-2 cells expressing CCR4 with T-LAK effector cells (calcein release) is 1140 pM and the Emax (%), cytotoxicity of the negative control antibody against MT-2 cells expressing CCR4 with T-LAK effector cells (calcein release) was 8.5%.
